System: Arabidopsis thaliana T1 plants
Assay: Topramezone tolerance of transgenic Arabidopsis thaliana T1 plants (pesticide damage grade by bleached leaf area, score, resistance evaluation)
Assay type: in vivo
Conditions: HPPDs from different species, 7 DAT; for Classification and statistics of pesticide damage grade Grade 0 / Classification and statistics of pesticide damage grade Grade 1 / Classification and statistics of pesticide damage grade Grade 2 / Classification and statistics of pesticide damage grade Grade 3: number of plants (of 16) in this grade; for Scores: score for pesticide damage 0-100
Method in brief: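 Eighteen days after sowing, wild-type and HPPD-transgenic T1 Arabidopsis receive a topramezone spray at 1×, 2× or 4× field rate (25–100 g ai/ha) or water. Seven days later each plant is graded by its proportion of bleached leaf area.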

B1: CyHPPD-02: native Cyanobacteria HPPD, SEQ ID NO: 141 (protein)
chain: MEFDYLHLYVDDYQSAHRCYQRQWGFTCVNKIITDQGITGIYQQGQILLLISASESSLSRYADYLQKHPPGVGEVAWQVANWQKIQHQLSELQIETTPVIHPLTKAEGLTFLLWGDVHHSIYPVRSELNQNKTLHGVGLTTIDHVVLNIAADQFTQASQWYQQVFGWSVQQSFTVNTPHSGLYSEALASANGKVQFNLNCPTNNSSQIQTFLANNHGAGIQHVAFSTTSITRTVAHLRERGVNFLKIPTGYYQQQRNSSYFNYASLDWDTLQCLEILLDDQDNTGERLLLQIFSQPCYGVGTLFWEIIERRHRAKGFGQGNFQALYEAVETLEKQLEVP
modifications: CyHPPD Amino Acid Sequence (Cyanobacteria)
- Classification and statistics of pesticide damage grade Grade 0 (topramezone 25 g ai/ha (1x)): 0
- Classification and statistics of pesticide damage grade Grade 1 (topramezone 25 g ai/ha (1x)): 0
- Classification and statistics of pesticide damage grade Grade 2 (topramezone 25 g ai/ha (1x)): 0
- Classification and statistics of pesticide damage grade Grade 3 (topramezone 25 g ai/ha (1x)): 0
- Classification and statistics of pesticide damage grade Grade 0 (topramezone 100 g ai/ha (4x)): 0
- Classification and statistics of pesticide damage grade Grade 1 (topramezone 100 g ai/ha (4x)): 0
- Classification and statistics of pesticide damage grade Grade 2 (topramezone 100 g ai/ha (4x)): 0
- Classification and statistics of pesticide damage grade Grade 3 (topramezone 100 g ai/ha (4x)): 0
- Scores (topramezone 25 g ai/ha (1x)): 16
- Scores (topramezone 100 g ai/ha (4x)): 16
- Resistance evaluation (topramezone 25 g ai/ha (1x)): non-resistant (non-resistant plants (scores 68-100))
- Resistance evaluation (topramezone 100 g ai/ha (4x)): non-resistant (non-resistant plants (scores 68-100))

B2: CyHPPDm-F372A-02: Cyanobacteria HPPD mutant F372A, SEQ ID NO: 144 (protein)
chain: MEFDYLHLYVDDYQSAHRCYQRQWGFTCVNKIITDQGITGIYQQGQILLLISASESSLSRYADYLQKHPPGVGEVAWQVANWQKIQHQLSELQIETTPVIHPLTKAEGLTFLLWGDVHHSIYPVRSELNQNKTLHGVGLTTIDHVVLNIAADQFTQASQWYQQVFGWSVQQSFTVNTPHSGLYSEALASANGKVQFNLNCPTNNSSQIQTFLANNHGAGIQHVAFSTTSITRTVAHLRERGVNFLKIPTGYYQQQRNSSYFNYASLDWDTLQCLEILLDDQDNTGERLLLQIASQPCYGVGTLFWEIIERRHRAKGFGQGNFQALYEAVETLEKQLEVP
modifications: CyHPPDm-F372A Amino Acid Sequence
- Classification and statistics of pesticide damage grade Grade 0 (topramezone 25 g ai/ha (1x)): 1
- Classification and statistics of pesticide damage grade Grade 1 (topramezone 25 g ai/ha (1x)): 14
- Classification and statistics of pesticide damage grade Grade 2 (topramezone 25 g ai/ha (1x)): 1
- Classification and statistics of pesticide damage grade Grade 3 (topramezone 25 g ai/ha (1x)): 0
- Classification and statistics of pesticide damage grade Grade 0 (topramezone 100 g ai/ha (4x)): 0
- Classification and statistics of pesticide damage grade Grade 1 (topramezone 100 g ai/ha (4x)): 1
- Classification and statistics of pesticide damage grade Grade 2 (topramezone 100 g ai/ha (4x)): 15
- Classification and statistics of pesticide damage grade Grade 3 (topramezone 100 g ai/ha (4x)): 0
- Scores (topramezone 25 g ai/ha (1x)): 33
- Scores (topramezone 100 g ai/ha (4x)): 65
- Resistance evaluation (topramezone 25 g ai/ha (1x)): moderately resistant (moderately resistant plants (scores 16-33))
- Resistance evaluation (topramezone 100 g ai/ha (4x)): poorly resistant (poorly resistant plants (scores 34-67))

B3: TaHPPD-02: native Triticum aestivum HPPD, SEQ ID NO: 39 (protein, listed as Triticum aestivum)
chain: MPPTPTTPAATGAGAAAAVTPEHARPRRMVRFNPRSDRFHTLSFHHVEFWCADAASAAGRFAFALGAPLAARSDLSTGNSVHASQLLRSGNLAFLFTAPYANGCDAATASLPSFSADAARRFSADHGLAVRSIALRVADAAEAFRASVDGGARPAFSPVDLGRGFGFAEVELYGDVVLRFVSHPDGTDVPFLPGFEGVSNPGAVDYGLTRFDHVVGNVPELASAAAYVAGFTGFHEFAEFTTEDVGTAESGLNSMVLANNSEGVLLPLNEPVHGTKRRSQIQTFLEHHGGPGVQHIAVASSDVLRTLREMRARSAMGGFDFLPPPLPKYYEGVRRIAGDVLSEAQIKECQELGVLVDRDDQGVLLQIFTKPVGDRPTLFLEMIQRIGCMEKDERGEEYQKGGCGGFGKGNFSELFKSIEDYEKSLEAKQSAAVQGS
modifications: TaHPPD Amino Acid Sequence
- Classification and statistics of pesticide damage grade Grade 0 (topramezone 25 g ai/ha (1x)): 0
- Classification and statistics of pesticide damage grade Grade 1 (topramezone 25 g ai/ha (1x)): 0
- Classification and statistics of pesticide damage grade Grade 2 (topramezone 25 g ai/ha (1x)): 0
- Classification and statistics of pesticide damage grade Grade 3 (topramezone 25 g ai/ha (1x)): 16
- Classification and statistics of pesticide damage grade Grade 0 (topramezone 100 g ai/ha (4x)): 0
- Classification and statistics of pesticide damage grade Grade 1 (topramezone 100 g ai/ha (4x)): 0
- Classification and statistics of pesticide damage grade Grade 2 (topramezone 100 g ai/ha (4x)): 0
- Classification and statistics of pesticide damage grade Grade 3 (topramezone 100 g ai/ha (4x)): 16
- Scores (topramezone 25 g ai/ha (1x)): 100
- Scores (topramezone 100 g ai/ha (4x)): 100
- Resistance evaluation (topramezone 25 g ai/ha (1x)): non-resistant (non-resistant plants (scores 68-100))
- Resistance evaluation (topramezone 100 g ai/ha (4x)): non-resistant (non-resistant plants (scores 68-100))

B4: N1HPPD-02: native Sphingobium sp. N1 HPPD, SEQ ID NO: 147 (protein)
chain: MAADSENPLGLHGFAFAEFTSPDPAAMARQFEQLGFVPAARRKDRGLTLYRQGRIAFILNAGEGEQASAFRAAHGPSANGMAFNVADAKAAHRHAIQSGATDADTAQSALPGTYAIEGIGDSLLYLVDSDPFADWDEVPGWREASAERGVGLDLLDHLTHNVRRGQMRVWSEFYATLFGFEEQKFFDIKGQATGLFSQAMIAPDHEIRIPLNESQDDNSQIEEFIREYNGEGIQHLALTTPDIYSTVEKLRANGVRLQDTIDTYYDLVDERVPGHGEDLARLRKNRILIDGDVHDEGLLLQIFTETMFGPIFFEIIQRKGNEGFGNGNFQVLYESIELDQIRRGVVTVDA
modifications: N1HPPD Amino Acid Sequence (Sphingobacterium)
- Classification and statistics of pesticide damage grade Grade 0 (topramezone 25 g ai/ha (1x)): 2
- Classification and statistics of pesticide damage grade Grade 1 (topramezone 25 g ai/ha (1x)): 12
- Classification and statistics of pesticide damage grade Grade 2 (topramezone 25 g ai/ha (1x)): 1
- Classification and statistics of pesticide damage grade Grade 3 (topramezone 25 g ai/ha (1x)): 1
- Classification and statistics of pesticide damage grade Grade 0 (topramezone 100 g ai/ha (4x)): 0
- Classification and statistics of pesticide damage grade Grade 1 (topramezone 100 g ai/ha (4x)): 4
- Classification and statistics of pesticide damage grade Grade 2 (topramezone 100 g ai/ha (4x)): 8
- Classification and statistics of pesticide damage grade Grade 3 (topramezone 100 g ai/ha (4x)): 4
- Scores (topramezone 25 g ai/ha (1x)): 35
- Scores (topramezone 100 g ai/ha (4x)): 67
- Resistance evaluation (topramezone 25 g ai/ha (1x)): poorly resistant (poorly resistant plants (scores 34-67))
- Resistance evaluation (topramezone 100 g ai/ha (4x)): poorly resistant (poorly resistant plants (scores 34-67))

B5: N1HPPDm-F372A-02: Sphingobium sp. N1 HPPD mutant F372A, SEQ ID NO: 150 (protein)
chain: MAADSENPLGLHGFAFAEFTSPDPAAMARQFEQLGFVPAARRKDRGLTLYRQGRIAFILNAGEGEQASAFRAAHGPSANGMAFNVADAKAAHRHAIQSGATDADTAQSALPGTYAIEGIGDSLLYLVDSDPFADWDEVPGWREASAERGVGLDLLDHLTHNVRRGQMRVWSEFYATLFGFEEQKFFDIKGQATGLFSQAMIAPDHEIRIPLNESQDDNSQIEEFIREYNGEGIQHLALTTPDIYSTVEKLRANGVRLQDTIDTYYDLVDERVPGHGEDLARLRKNRILIDGDVHDEGLLLQIATETMFGPIFFEIIQRKGNEGFGNGNFQVLYESIELDQIRRGVVTVDA
modifications: N1HPPDm-F372A Amino Acid Sequence
- Classification and statistics of pesticide damage grade Grade 0 (topramezone 25 g ai/ha (1x)): 16
- Classification and statistics of pesticide damage grade Grade 1 (topramezone 25 g ai/ha (1x)): 0
- Classification and statistics of pesticide damage grade Grade 2 (topramezone 25 g ai/ha (1x)): 0
- Classification and statistics of pesticide damage grade Grade 3 (topramezone 25 g ai/ha (1x)): 0
- Classification and statistics of pesticide damage grade Grade 0 (topramezone 100 g ai/ha (4x)): 16
- Classification and statistics of pesticide damage grade Grade 1 (topramezone 100 g ai/ha (4x)): 0
- Classification and statistics of pesticide damage grade Grade 2 (topramezone 100 g ai/ha (4x)): 0
- Classification and statistics of pesticide damage grade Grade 3 (topramezone 100 g ai/ha (4x)): 0
- Scores (topramezone 25 g ai/ha (1x)): 0
- Scores (topramezone 100 g ai/ha (4x)): 0
- Resistance evaluation (topramezone 25 g ai/ha (1x)): highly resistant (highly resistant plants (scores 0-15))
- Resistance evaluation (topramezone 100 g ai/ha (4x)): highly resistant (highly resistant plants (scores 0-15))

B6: N2HPPD-02: native Sphingobium sp. N2 HPPD, SEQ ID NO: 153 (protein)
chain: MTLFDNPLGLDGFEFVEFSAPAKGMLEPVFAAMGFVMIARHRSKDVQLWRQGGINLIANYEPRSPAAYFAAEHGPSACGMGWRVRNAAKAYELAVERGAEPVDVKTGPMELRLPAIRGIGGSIIYLIDRYEDEDGGLSIYDIDFVYEPGVDRHPEGAGFKIIDHLTHNVYGGRMAHWASFYERVFGFREIRYFDIKGEYTGLTSKAMTAPDGKIRIPLNEEGKAGGGQIEEFLRAYNGEGIQHIAFLCDDLIAAWDKLKALGTPLMTAPPATYYEMLDERLPGHGEPVAELQKRGILLDGSTQQGDPRLLLQIFGQATIGPVFFEFIQRKKDEGFGEGNFTALFESMERDQLRRGTLNAGESA
modifications: N2HPPD Amino Acid Sequence (Sphingobacterium)
- Classification and statistics of pesticide damage grade Grade 0 (topramezone 25 g ai/ha (1x)): 0
- Classification and statistics of pesticide damage grade Grade 1 (topramezone 25 g ai/ha (1x)): 1
- Classification and statistics of pesticide damage grade Grade 2 (topramezone 25 g ai/ha (1x)): 15
- Classification and statistics of pesticide damage grade Grade 3 (topramezone 25 g ai/ha (1x)): 0
- Classification and statistics of pesticide damage grade Grade 0 (topramezone 100 g ai/ha (4x)): 0
- Classification and statistics of pesticide damage grade Grade 1 (topramezone 100 g ai/ha (4x)): 0
- Classification and statistics of pesticide damage grade Grade 2 (topramezone 100 g ai/ha (4x)): 0
- Classification and statistics of pesticide damage grade Grade 3 (topramezone 100 g ai/ha (4x)): 16
- Scores (topramezone 25 g ai/ha (1x)): 65
- Scores (topramezone 100 g ai/ha (4x)): 100
- Resistance evaluation (topramezone 25 g ai/ha (1x)): poorly resistant (poorly resistant plants (scores 34-67))
- Resistance evaluation (topramezone 100 g ai/ha (4x)): non-resistant (non-resistant plants (scores 68-100))

— patent US20230212587A1, “Mutant Hydroxyphenylpyruvate Dioxygenase Polypeptide, Encoding Gene Thereof and Use Therefor” (Beijing Dabeinong Biotechnology Co., Ltd., priority 2019, published 2023)
